The results in this text go back to US20240239894A1 (AstraZeneca / MedImmune, published 2024).

In assay [1] the target is T1, huB7-H1 (human, UniProt Q9NZQ7 19-238).
T1 construct: Sourced antigen; construct not described; also called Human B7-H1
Kind of assay: ELISA. (An ELISA detects its analyte on a solid surface through an enzyme-linked reagent.)

In assay [2] the target is T2, huB7-H2 (human, UniProt O75144 19-258).
T2 construct: Sourced antigen; construct not described; also called Human B7-H2
T2 sequence (looked up): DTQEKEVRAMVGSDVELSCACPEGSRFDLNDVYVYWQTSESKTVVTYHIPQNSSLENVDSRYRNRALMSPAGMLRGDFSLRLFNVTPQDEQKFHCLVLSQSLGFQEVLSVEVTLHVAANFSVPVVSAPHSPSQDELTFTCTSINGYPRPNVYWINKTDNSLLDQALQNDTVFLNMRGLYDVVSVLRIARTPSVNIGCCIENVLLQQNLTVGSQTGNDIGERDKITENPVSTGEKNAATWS
The experiment in a line: ELISA.

The target in assay [3] is T3, huB7-H3 (human, UniProt Q5ZPR3 29-461, limits assumed).
T3 construct: Sourced antigen; construct not described; also called Human B7-H3
T3 sequence (looked up): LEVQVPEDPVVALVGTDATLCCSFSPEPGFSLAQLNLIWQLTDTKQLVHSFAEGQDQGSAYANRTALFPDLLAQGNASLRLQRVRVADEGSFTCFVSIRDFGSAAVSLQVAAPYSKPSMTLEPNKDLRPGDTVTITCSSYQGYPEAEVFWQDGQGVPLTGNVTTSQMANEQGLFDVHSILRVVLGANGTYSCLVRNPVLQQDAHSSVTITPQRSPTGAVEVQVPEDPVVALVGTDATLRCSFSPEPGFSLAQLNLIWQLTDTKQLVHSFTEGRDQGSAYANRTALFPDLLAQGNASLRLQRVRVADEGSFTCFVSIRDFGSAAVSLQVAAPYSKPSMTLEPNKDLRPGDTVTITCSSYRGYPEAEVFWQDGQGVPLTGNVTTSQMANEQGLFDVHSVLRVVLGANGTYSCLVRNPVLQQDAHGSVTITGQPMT
Kind of assay: ELISA.

The target of assay [4] is T4, huBTN1A1 (human, UniProt Q13410 27-242, limits assumed).
T4 construct: Sourced antigen; construct not described; also called Human BTN1A1
T4 sequence (looked up): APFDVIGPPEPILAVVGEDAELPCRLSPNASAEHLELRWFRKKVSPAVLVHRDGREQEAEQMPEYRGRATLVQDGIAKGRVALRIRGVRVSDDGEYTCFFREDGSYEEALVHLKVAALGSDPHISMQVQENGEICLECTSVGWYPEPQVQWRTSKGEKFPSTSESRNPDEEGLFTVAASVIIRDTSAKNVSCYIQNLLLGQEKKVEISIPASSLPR
Kind of assay: ELISA.

In assay [5] the target is T5, huHHLA2 (human, UniProt Q9UM44 23-344).
T5 construct: Sourced antigen; construct not described; also called Human HHLA2
T5 sequence (looked up): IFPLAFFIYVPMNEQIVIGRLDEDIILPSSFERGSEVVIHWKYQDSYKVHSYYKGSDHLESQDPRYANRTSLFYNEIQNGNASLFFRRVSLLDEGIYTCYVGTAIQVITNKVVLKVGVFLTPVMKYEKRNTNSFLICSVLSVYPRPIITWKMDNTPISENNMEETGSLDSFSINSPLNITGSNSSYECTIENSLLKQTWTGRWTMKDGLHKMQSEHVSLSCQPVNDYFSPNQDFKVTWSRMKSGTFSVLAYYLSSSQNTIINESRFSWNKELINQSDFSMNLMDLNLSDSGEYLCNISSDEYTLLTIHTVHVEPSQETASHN
The experiment in a line: ELISA.

Assay [6] concerns the target T6, huBTN3A2 (human, UniProt P78410 30-248, limits assumed).
T6 construct: Sourced antigen; construct not described; also called Human BTN3A2
Kind of assay: ELISA.

The target of assay [7] is T7, huBTN2A1 (human, UniProt Q7KYR7 29-248, limits assumed).
T7 construct: Sourced antigen; construct not described; also called Human BTN2A1
T7 sequence (looked up): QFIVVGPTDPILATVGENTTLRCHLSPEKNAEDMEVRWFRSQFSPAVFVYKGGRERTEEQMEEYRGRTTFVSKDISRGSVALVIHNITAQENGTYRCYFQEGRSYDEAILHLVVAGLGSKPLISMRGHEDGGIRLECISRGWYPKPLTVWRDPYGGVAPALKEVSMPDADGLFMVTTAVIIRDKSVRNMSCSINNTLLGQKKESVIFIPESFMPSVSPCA
The experiment in a line: ELISA.

The target of assay [8] is T8, huBTNL3 (human, UniProt Q6UXE8 18-237, limits assumed).
T8 construct: Sourced antigen; construct not described; also called Human BTNL3
T8 sequence (looked up): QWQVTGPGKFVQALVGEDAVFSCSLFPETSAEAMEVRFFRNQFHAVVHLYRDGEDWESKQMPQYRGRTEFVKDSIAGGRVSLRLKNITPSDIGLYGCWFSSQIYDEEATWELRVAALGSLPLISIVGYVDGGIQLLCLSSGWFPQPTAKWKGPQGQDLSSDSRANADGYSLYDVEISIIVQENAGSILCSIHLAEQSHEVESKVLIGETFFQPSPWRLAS
The experiment in a line: ELISA.

Assay [9] deals with T9, human B7-H4 on cells (human, UniProt Q7Z7D3 25-282).
T9 sequence: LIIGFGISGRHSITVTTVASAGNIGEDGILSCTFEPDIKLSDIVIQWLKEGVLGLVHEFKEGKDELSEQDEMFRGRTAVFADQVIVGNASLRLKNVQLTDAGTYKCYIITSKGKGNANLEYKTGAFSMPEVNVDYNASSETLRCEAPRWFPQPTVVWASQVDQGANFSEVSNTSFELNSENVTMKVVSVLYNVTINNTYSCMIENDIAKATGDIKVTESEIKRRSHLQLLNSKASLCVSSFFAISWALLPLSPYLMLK
Kind of assay: cell-based or functional assay.

The target of assay [10] is T10, Human B7-H4 ECD-Flag-His10 (monomeric) (human, UniProt Q7Z7D3 25-259).
T10 construct: Minimally biotinylated for KinExA; also called hB7H4-ECD-Flag-His10; B7-H4-FLAG
T10 sequence: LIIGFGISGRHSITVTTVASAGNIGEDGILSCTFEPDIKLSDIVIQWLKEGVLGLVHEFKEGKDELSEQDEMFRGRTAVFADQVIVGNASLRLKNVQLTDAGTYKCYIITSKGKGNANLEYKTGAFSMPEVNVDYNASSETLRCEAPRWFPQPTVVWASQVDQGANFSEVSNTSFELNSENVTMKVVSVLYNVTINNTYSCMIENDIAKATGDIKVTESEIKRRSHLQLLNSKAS
Kind of assay: Octet BLI, hIgG1-TM on Protein G (n = 4-7). A general note: BLI is a label-free optical method that tracks binding on a fibre tip over time.

The target of assay [11] is T11, Murine B7-H4 ECD-Flag-His10 (monomeric) (mouse, UniProt Q7TSP5 25-257).
T11 construct: extracellular domain; also called FlagHis10 murine B7-H4
T11 sequence (looked up): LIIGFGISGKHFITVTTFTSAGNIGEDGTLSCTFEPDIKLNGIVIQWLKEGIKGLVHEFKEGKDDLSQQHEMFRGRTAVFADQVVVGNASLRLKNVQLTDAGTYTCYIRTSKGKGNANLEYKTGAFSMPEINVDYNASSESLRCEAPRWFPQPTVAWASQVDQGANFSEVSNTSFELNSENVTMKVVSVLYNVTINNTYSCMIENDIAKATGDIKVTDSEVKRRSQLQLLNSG
Kind of assay: Octet BLI, hIgG1-TM on Protein G (n = 4-7).

The target in assay [12] is T12, Human B7H4 ECD (SV), splice variant, 10His_FLAG (human).
T12 construct: also called B7-H4-SV
The experiment in a line: Octet BLI, hIgG1-TM on Protein G (n = 4-7).

In assay [13] the target is T11, Murine B7-H4 ECD-Flag-His10 (monomeric). The experiment in a line: Octet; summary table, repeats Table 9 (hIgG1-TM).
The target of assay [14] is T12, Human B7H4 ECD (SV), splice variant, …. Kind of assay: Octet; summary table, repeats Table 9 (hIgG1-TM).
The target in assay [15] is T10, Human B7-H4 ECD-Flag-His10 (monomeric). The experiment in a line: Octet; summary table, rounded from Table 9 (hIgG1-TM).
Assay [16] concerns the target T13, Human B7H4 (ECD) Fc TM 6H (human, UniProt Q7Z7D3).
T13 construct: ECD, native leader
T13 sequence (Q7Z7D3 whole entry, looked up): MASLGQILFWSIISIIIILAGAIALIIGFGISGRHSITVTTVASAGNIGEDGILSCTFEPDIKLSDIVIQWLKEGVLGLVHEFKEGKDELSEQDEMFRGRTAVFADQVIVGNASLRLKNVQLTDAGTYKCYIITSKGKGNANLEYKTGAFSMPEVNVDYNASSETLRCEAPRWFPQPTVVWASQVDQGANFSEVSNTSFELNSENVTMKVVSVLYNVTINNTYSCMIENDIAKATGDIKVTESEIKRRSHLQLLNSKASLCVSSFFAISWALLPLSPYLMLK
Kind of assay: ELISA, absorbance 450 nm, Human B7H4 (ECD) Fc TM 6H; x axis printed as antigen concentration (nM).

Assay [17] has as its target T14, cynomolgus monkey B7-H4 on cells (cynomolgus monkey, UniProt A0A2K5U6P5 25-282).
T14 sequence: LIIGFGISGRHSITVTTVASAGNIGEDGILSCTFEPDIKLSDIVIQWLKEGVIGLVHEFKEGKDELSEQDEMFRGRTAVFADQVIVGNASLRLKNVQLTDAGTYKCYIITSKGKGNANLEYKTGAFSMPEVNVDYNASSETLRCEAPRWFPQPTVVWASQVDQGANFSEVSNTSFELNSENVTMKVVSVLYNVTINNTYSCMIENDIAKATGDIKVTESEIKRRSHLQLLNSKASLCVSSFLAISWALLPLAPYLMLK
Kind of assay: cell-based or functional assay.

T6 sequence (P78410 30-248 limits assumed): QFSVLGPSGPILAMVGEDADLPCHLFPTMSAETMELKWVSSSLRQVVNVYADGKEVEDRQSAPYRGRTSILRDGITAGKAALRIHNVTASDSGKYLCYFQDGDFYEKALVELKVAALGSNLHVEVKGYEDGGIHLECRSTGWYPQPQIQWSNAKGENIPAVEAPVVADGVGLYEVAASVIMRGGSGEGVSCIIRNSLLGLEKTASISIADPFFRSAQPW
T1 sequence (Q9NZQ7 19-238 limits assumed): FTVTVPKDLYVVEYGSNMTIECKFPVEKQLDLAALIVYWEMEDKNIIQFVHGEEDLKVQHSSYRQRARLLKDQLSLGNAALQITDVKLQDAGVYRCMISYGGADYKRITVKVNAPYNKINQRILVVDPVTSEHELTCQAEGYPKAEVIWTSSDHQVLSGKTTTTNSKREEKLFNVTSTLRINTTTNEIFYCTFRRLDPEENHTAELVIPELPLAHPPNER

B1: ZY0EO5-E07 human IgG1-TM (antibody, V domains shown)
VH: QVQLQESGPGLVKPSQTLSLTCTVSGGSISSGGYYWSWIRQHPGKGLEWIGNIYYSGSTYYNPSLKSRVTISVDTSKNQFSLKLSSVTAADTAVYYCAREKALASVIPSGYENYYVVDVWGQGTTVTVSS
VL: DIQLTQSPSFLSASVGGRVTITCWASQGIAGYLAWYQQKPGKAPKLLIYAASTLQSGVPSRFSGSGSGTEFTLTISSLQPEDFATYYCQHLNSYPLTFGGGTKVEIK
notes: also called ZY0E05-E07; E05-E07
Consider B1, for which the binding result in [1], in assay [2], in [3], in [4], in [5] and in assay [6] was “no binding” throughout. Moreover, the binding result in assay [7] and in [8] was “no binding” in each case. Also, in assay [9], the “ZAP % Viability, OVCAR4” value was 58%. Also, the “ZAP % Viability, SKBR3” value in [9] came to 79%. The Kd (in general, the concentration at which binding is half-saturated) in assay [10] was determined as 19.8 nM; in assay [11] it was 30 nM; in assay [12] it was 264 nM; in assay [13], 30 nM; in assay [14], 264 nM; in assay [15], 20 nM. Also, the koff (as a rule, the first-order rate constant of dissociation) in assay [10] is 0.000338 s⁻¹; in assay [11] it was 0.000361 s⁻¹; in assay [12], 0.000499 s⁻¹. Also, the results for the kon in assay [10], in assay [11] and in assay [12] were 17100 M⁻¹ s⁻¹, 12100 M⁻¹ s⁻¹ and 1890 M⁻¹ s⁻¹, respectively.

B2: E02-maia (ZY0EQD_E02, wildtype, Maia format human IgG1) (antibody, V domains shown)
VH: QVQLQQWGAGLLKPSETLSLTCAVYGGSFSGYYWNWIRQPPGKGLEWIGEINHSGSTSYNPSLKSRVTISVDTSKNQFSLKLSSVTAADTAVYYCARVLYNWNVDSWGQGTLVTVSS
VL: DIQMTQSPSSLSASVGDRVTITCRASQDIRNDVGWYQQKPGKAPKRLIYAASRLQSGVPSRFSGSGSGTEFTLTISSLQPEDFATYYCLQHNSYPRTFGQGTKVEIKR
notes: built here from VH 33 and the Maia constant region 41
For the molecule B2, the EC50 (read off the curve) – broadly, the concentration giving half of the maximal effect – in assay [16] is approximately 10 nM.

B3: E02-GL-SG3249 (antibody, human IgG1, kappa)
heavy: QVQLQQWGAGLLKPSETLSLACTVYGGSFSGYYWNWIRQPPGKGLEWIGEINHSGSTSYNPSLKSRVTISVDTSKNQFSLKLSSVTAADTAVYYCARVLYNWNVDSWGQGTLVTVSSASTKGPSVFPLAPSSKSTSGGTAALGCLVKDYFPEPVTVSWNSGALTSGVHTFPAVLQSSGLYSLSSVVTVPSSSLGTQTYICNVNHKPSNTKVDKRVEPKSCDKTHTCPPCPAPELLGGPSCVFLFPPKPKDTLMISRTPEVTCVVVDVSHEDPEVKFNWYVDGVEVHNAKTKPREEQYNSTYRVVSVLTVLHQDWLNGKEYKCKVSNKALPAPIEKTISKAKGQPREPQVYTLPPSREEMTKNQVSLTCLVKGFYPSDIAVEWESNGQPENNYKTTPPVLDSDGSFFLYSKLTVDKSRWQQGNVFSCSVMHEALHNHYTQKSLSLSPGK
light: DIQMTQSPSSLSASVGDRVTITCRASQDIRNDVGWYQQKPGKAPKRLIYAASRLQSGVPSRFSGSGSGTEFTLTISSLQPEDFATYYCLQHNSYPRTFGQGTKVEIKRTVAAPSVFIFPPSDEQLKSGTASVVCLLNNFYPREAKVQWKVDNALQSGNSQESVTEQDSKDSTYSLSSTLTLSKADYEKHKVYACEVTHQGLSSPVTKSFNRGEC
modifications: pyrrolobenzodiazepine SG3249 conjugated at the inserted cysteine of the Maia backbone
Turning to B3, the “IC50, cytotoxicity on cynomolgus B7-H4 transfected cells” value in [17] was found to be 0.672 ng/mL.
